Patent US20250186597A1, “TARGETED IMMUNE ACTIVATION WITH IL-18 IMMUNOCYTOKINES” (BRIGHT PEAK THERAPEUTICS AG, priority 2023, published 2025)

T1: human IL-18BP (Homo sapiens, UniProt O95998)
T1 construct: His
T1 sequence (O95998 31-194): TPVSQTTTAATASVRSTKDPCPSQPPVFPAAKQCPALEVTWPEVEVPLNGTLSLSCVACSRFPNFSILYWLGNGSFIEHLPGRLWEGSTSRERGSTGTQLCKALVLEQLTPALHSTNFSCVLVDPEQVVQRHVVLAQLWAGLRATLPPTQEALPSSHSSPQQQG


Tests used:
[1] = system: NK92 cells; assay: IFN gamma secretion assay in NK92 cells (Example 10); format: cell-based, human; conditions: IFNγ secretion, 1 ng/ml IL-12
Procedure: The IFNγ-secretion stimulating activity of the unconjugated IL-18 variants and corresponding IL-18 immunocytokines was evaluated on NK92 cell line. The NK cell line NK-92 derived from a patient with lymphoma (ATCC, Cat #CRL-2407) was cultured in aMEM medium supplemented with 12.5% FCS, 12.5% horse serum (HS), 50 uM B-mercaptoEthanol, and 2 ng/ml of recombinant Human Interleukin-2 (IL-2).
On the day of experiment, cells were harvested and washed with aMEM medium without IL-2 and resuspended in medium (w/o IL-2) containing 1 ng/ml of recombinant human Interleukin-12 (SinoBiologicals, Cat #CT011-H08H). After counting, cells were seeded at 100 000 cells/well in a 384 well titer plate and incubated at 37° C./5% CO2. Sixteen 4-fold serial dilutions of IL-18 analytes were prepared in aMEM medium—1 ng/ml IL-12 and were added to the NK-92 cells. […]
After 16-20 h incubation at 37° C./5% CO2, 5 μl of supernatant were carefully transferred to a 384 microwells OPTIPlate (Perkin Elmer; Cat #6007270) and Interferon-gamma (IFNγ) levels measured using the Human IFNγ AlphaLISA Assay Kit (Perkin Elmer, Cat #AL217C). […] AlphaLisa signal was then measured on an Enspire plate reader (Perkin Elmer) using 680 and 615 nm as excitation and emission wavelengths respectively. Half maximal effective concentration (EC50) was calculated based on a variable slope, four parameter analysis using GraphPad PRISM software.

[2] = system: NK-92 cells; assay: IFNγ induction cellular assay in NK-92 cells (Example 4, used in Example 22C); format: cell-based, human; conditions: IFNg stimulation in NK92 cells
[3] = system: NK-92 cells; assay: IL-18 binding protein inhibition cellular assay in NK-92 cells (Example 4, used in Example 22C); format: cell-based, human; conditions: inhibition by IL-18BP of IFNg stimulation in NK92 cells
[4] = target: T1, human IL-18BP; assay: IL-18BP binding alphaLISA assay (Example 4, used in Example 22B); conditions: IL-18BP AlphaLISA

Molecule | EC50 [1] [nM] | EC50 [2] [nM] | IC50 [3] [nM] | Kd [4] [nM]
SEQ ID NO: 60: IL-18 polypeptide: E6K, C38Q, K53A (protein) YFGKLKSKLSVIRNLNDQVLFIDQGNRPLFEDMTDSDQRDNAPRTIFIISMYADSQPRGMAVTISVKCEKISTLSCENKIISFKEMNPPDNIKDTKSDIIFFQRSVPGHDNKMQFESSSYEGYFLACEKERDLFKLILKKEDELGDRSIMFTVQNED | 0.008 |  |  | 
35 (protein) GAGKLKSKLSVIRNLNDQVLFIDQGNRPLFEDMTDSDCRDNAPRTIFIISGYAAAQPRGMAVAISVKCEKISTLSCENKIISFKEMNPPDNIKDTKSDIIFFQRSVPGHDNKMQFESSSYEGYFLACEKERDLFKLILKKEDELGDRSIMFTVQNED |  | > 55 | > 55 | 969
C167: IL-18 polypeptide: V11I, C38A, C76A, S105I, C127A (protein) YFGKLESKLSIIRNLNDQVLFIDQGNRPLFEDMTDSDARDNAPRTIFIISMYKDSQPRGMAVTISVKCEKISTLSAENKIISFKEMNPPDNIKDTKSDIIFFQRIVPGHDNKMQFESSSYEGYFLAAEKERDLFKLILKKEDELGDRSIMFTVQNED |  | 0.103 | 0.809 | 0.04
C166: IL-18 polypeptide: V11I, C38A, S55T, C76A, C127A (protein) YFGKLESKLSIIRNLNDQVLFIDQGNRPLFEDMTDSDARDNAPRTIFIISMYKDTQPRGMAVTISVKCEKISTLSAENKIISFKEMNPPDNIKDTKSDIIFFQRSVPGHDNKMQFESSSYEGYFLAAEKERDLFKLILKKEDELGDRSIMFTVQNED |  | 0.098 | 0.44 | 0.02

More lines, in order of falling EC50 [2], values ahead:

EC50 [1] [nM] | EC50 [2] [nM] | IC50 [3] [nM] | Kd [4] [nM] | Molecule
 | 0.098 | 0.176 | 0.05 | C168: IL-18 polypeptide: V11I, C38A, C76A, S105K, C127A (protein) YFGKLESKLSIIRNLNDQVLFIDQGNRPLFEDMTDSDARDNAPRTIFIISMYKDSQPRGMAVTISVKCEKISTLSAENKIISFKEMNPPDNIKDTKSDIIFFQRKVPGHDNKMQFESSSYEGYFLAAEKERDLFKLILKKEDELGDRSIMFTVQNED
 | 0.026 | 284 | 69.6 | 62 (protein) YFGKLKSKLSVIRNLNDQVLFIDQGNRPLFEDMTDSDARDNAPRTIFIISMYADSQPRGMAVTISVKCEKISTLSCENKIISFKEMNPPDNIKDTKSDIIFFQRSVPGHDNKMQFESSSYEGYFLAAEKERDLFKLILKKEDELGDRSIMFTVQNED
 | 0.015 | 654 | 36 | 59 (protein) YFGKLKSKLSVIRNLNDQVLFIDQGNRPLFEDMTDSDARDNAPRTIFIISMYADSQPRGMAVTISVKCEKISTLSCENKIISFKEMNPPDNIKDTKSDIIFFQRSVPGHDNKMQFESSSYEGYFLACEKERDLFKLILKKEDELGDRSIMFTVQNED
 | 0.006 | 780 | 24.8 | 60 (protein) YFGKLKSKLSVIRNLNDQVLFIDQGNRPLFEDMTDSDQRDNAPRTIFIISMYADSQPRGMAVTISVKCEKISTLSCENKIISFKEMNPPDNIKDTKSDIIFFQRSVPGHDNKMQFESSSYEGYFLACEKERDLFKLILKKEDELGDRSIMFTVQNED
